Results: patent publication US20150158933A1

Target: natural VIF protein on the surface of T1 human cells infected with HIV-1 strain IIIB (HIV-1 strain IIIB) (UniProt P69723)
Test: flow cytometry on HIV-1 IIIB infected T1 cells, 1:100

UniProt P69723, sequence (P69723 whole entry): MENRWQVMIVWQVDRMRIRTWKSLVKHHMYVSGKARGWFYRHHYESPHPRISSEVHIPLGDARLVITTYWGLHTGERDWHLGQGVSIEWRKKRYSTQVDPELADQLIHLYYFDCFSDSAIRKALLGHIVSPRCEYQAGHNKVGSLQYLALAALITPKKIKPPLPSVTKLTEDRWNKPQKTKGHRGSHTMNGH

Isotype control (antibody) showed an MFI of 971.
